# Test results: patent US20210130437A1 (ALPINE IMMUNE SCIENCES, published 2021)
# Numbering of substitutions follows the chain as printed. In names and notes the source's numbering stands.
# B1: Wildtype CD155 IgV Fc (Fc fusion, not shown: a dimerising Fc or GST)
# chain: WPPPGTGDVVVQAPTQVPGFLGDSVTLPCYLQVPNMEVTHVSQLTWARHGESGSMAVFHQTQGPSYSESKRLEFVAARLGAELRNASLRMFGLRVEDEGNYTCLFVTFPQGSRSVDIWLRVL
# B2: variant CD155 IgV-Fc A81V, L83P (Fc fusion, not shown: a dimerising Fc or GST)
# chain: B1 chain with A81V, L83P
# B3: PD-L2/CD155 Stack 4 (Fc fusion)
# chain: LFTVTVPKELYIIEQGSNVTLECNFDTGSHVNLGAITASLQKVENDASPHRERATLLEEQLPLGRALFHIPQVQVRDEGQYRCIIIYGDAWDYKYLTLKVKAGGGGSGGGGSGGGGSWPPPGTGDVVVQAPTQVSGFLGDSVTLPCYLQVPNMEVTHVSQLTWARHGESGSMAVFHQTQGPWYAESKRLEFVAARLGAELRNASLRMFGLRVEDEGNYTCQFVTFPQRSRSVDIWLRVLGGGGSGGGGSEPKSSDKTHTCPPCPAPEAEGAPSVFLFPPKPKDTLMISRTPEVTCVVVDVSHEDPEVKFNWYVDGVEVHNAKTKPREEQYNSTYRVVSVLTVLHQDWLNGKEYKCKVSNKALPAPIEKTISKAKGQPREPQVYTLPPSRDELTKNQVSLTCLVKGFYPSDIAVEWESNGQPENNYKTTPPVLDSDGSFFLYSKLTVDKSRWQQGNVFSCSVMHEALHNHYTQKSLSLSPGK
# notes: Homodimer; also called (PD-L2 IgV) (G4S)3 (CD155 IgV) (G4S)2 Fc
# B4: Wild Type CD155 full ECD Fc (Fc fusion)
# chain: WPPPGTGDVVVQAPTQVPGFLGDSVTLPCYLQVPNMEVTHVSQLTWARHGESGSMAVFHQTQGPSYSESKRLEFVAARLGAELRNASLRMFGLRVEDEGNYTCLFVTFPQGSRSVDIWLRVLAKPQNTAEVQKVQLTGEPVPMARCVSTGGRPPAQITWHSDLGGMPNTSQVPGFLSGTVTVTSLWILVPSSQVDGKNVTCKVEHESFEKPQLLTVNLTVYYPPEVSISGYDNNWYLGQNEATLTCDARSNPEPTGYNWSTTMGPLPPFAVAQGAQLLIRPVDKPINTTLICNVTNALGARQAELTVQVKEGPPSEHSGISRN
# notes: not shown: Fc and linker not specified
# B5: PD-L2/CD155 Stack 5 (Fc fusion)
# chain: EPKSSDKTHTCPPCPAPEAEGAPSVFLFPPKPKDTLMISRTPEVTCVVVDVSHEDPEVKFNWYVDGVEVHNAKTKPREEQYNSTYRVVSVLTVLHQDWLNGKEYKCKVSNKALPAPIEKTISKAKGQPREPQVYTLPPSRDELTKNQVSLTCLVKGFYPSDIAVEWESNGQPENNYKTTPPVLDSDGSFFLYSKLTVDKSRWQQGNVFSCSVMHEALHNHYTQKSLSLSPGKGGGGSGGGGSGGGGSWPPPGTGDVVVQAPTQVSGFLGDSVTLPCYLQVPNMEVTHVSQLTWARHGESGSMAVFHQTQGPWYAESKRLEFVAARLGAELRNASLRMFGLRVEDEGNYTCQFVTFPQRSRSVDIWLRVLGGGGSGGGGSGGGGSLFTVTVPKELYIIEQGSNVTLECNFDTGSHVNLGAITASLQKVENDASPHRERATLLEEQLPLGRALFHIPQVQVRDEGQYRCIIIYGDAWDYKYLTLKVKA
# notes: Homodimer; also called Fc (G4S)3 (CD155 IgV) (G4S)3 (PD-L2 IgV)
# B6: PD-L2/CD155 Stack 2 (Fc fusion)
# chain: LFTVTVPKELYIIEQGSNVTLECNFDTGSHVNLGAITASLQKVENDASPHRERATLLEEQLPLGRALFHIPQVQVRDEGQYRCIIIYGDAWDYKYLTLKVKAGGGGSGGGGSEPKSSDKTHTCPPCPAPEAEGAPSVFLFPPKPKDTLMISRTPEVTCVVVDVSHEDPEVKFNWYVDGVEVHNAKTKPREEQYNSTYRVVSVLTVLHQDWLNGKEYKCKVSNKALPAPIEKTISKAKGQPREPQVYTLPPSRDELTKNQVSLTCLVKGFYPSDIAVEWESNGQPENNYKTTPPVLDSDGSFFLYSKLTVDKSRWQQGNVFSCSVMHEALHNHYTQKSLSLSPGKGGGGSGGGGSGGGGSWPPPGTGDVVVQAPTQVSGFLGDSVTLPCYLQVPNMEVTHVSQLTWARHGESGSMAVFHQTQGPWYAESKRLEFVAARLGAELRNASLRMFGLRVEDEGNYTCQFVTFPQRSRSVDIWLRVL
# notes: Homodimer; also called (PD-L2 IgV) (G4S)2 Fc (G4S)3 (CD155 IgV)
# B7: PD-L2/CD155 Stack 3 (Fc fusion)
# chain: WPPPGTGDVVVQAPTQVSGFLGDSVTLPCYLQVPNMEVTHVSQLTWARHGESGSMAVFHQTQGPWYAESKRLEFVAARLGAELRNASLRMFGLRVEDEGNYTCQFVTFPQRSRSVDIWLRVLGGGGSGGGGSGGGGSLFTVTVPKELYIIEQGSNVTLECNFDTGSHVNLGAITASLQKVENDASPHRERATLLEEQLPLGRALFHIPQVQVRDEGQYRCIIIYGDAWDYKYLTLKVKAGGGGSGGGGSEPKSSDKTHTCPPCPAPEAEGAPSVFLFPPKPKDTLMISRTPEVTCVVVDVSHEDPEVKFNWYVDGVEVHNAKTKPREEQYNSTYRVVSVLTVLHQDWLNGKEYKCKVSNKALPAPIEKTISKAKGQPREPQVYTLPPSRDELTKNQVSLTCLVKGFYPSDIAVEWESNGQPENNYKTTPPVLDSDGSFFLYSKLTVDKSRWQQGNVFSCSVMHEALHNHYTQKSLSLSPGK
# notes: Homodimer; also called (CD155 IgV) (G4S)3 (PD-L2 IgV) (G4S)2 Fc
# B8: PD-L2/CD155 Stack 6 (Fc fusion)
# chain: EPKSSDKTHTCPPCPAPEAEGAPSVFLFPPKPKDTLMISRTPEVTCVVVDVSHEDPEVKFNWYVDGVEVHNAKTKPREEQYNSTYRVVSVLTVLHQDWLNGKEYKCKVSNKALPAPIEKTISKAKGQPREPQVYTLPPSRDELTKNQVSLTCLVKGFYPSDIAVEWESNGQPENNYKTTPPVLDSDGSFFLYSKLTVDKSRWQQGNVFSCSVMHEALHNHYTQKSLSLSPGKGGGGSGGGGSGGGGSLFTVTVPKELYIIEQGSNVTLECNFDTGSHVNLGAITASLQKVENDASPHRERATLLEEQLPLGRALFHIPQVQVRDEGQYRCIIIYGDAWDYKYLTLKVKAGGGGSGGGGSGGGGSWPPPGTGDVVVQAPTQVSGFLGDSVTLPCYLQVPNMEVTHVSQLTWARHGESGSMAVFHQTQGPWYAESKRLEFVAARLGAELRNASLRMFGLRVEDEGNYTCQFVTFPQRSRSVDIWLRVL
# notes: Homodimer; also called Fc (G4S)3 (PD-L2 IgV) (G4S)3 (CD155 IgV)
# B9: Wild Type PD-L2 full ECD Fc (Fc fusion)
# chain: LFTVTVPKELYIIEHGSNVTLECNFDTGSHVNLGAITASLQKVENDTSPHRERATLLEEQLPLGKASFHIPQVQVRDEGQYQCIIIYGVAWDYKYLTLKVKASYRKINTHILKVPETDEVELTCQATGYPLAEVSWPNVSVPANTSHSRTPEGLYQVTSVLRLKPPPGRNFSCVFWNTHVRELTLASIDLQSQMEPRTHPT
# notes: as for B4
# B10: PD-L2/CD155 Stack 1 (Fc fusion)
# chain: WPPPGTGDVVVQAPTQVSGFLGDSVTLPCYLQVPNMEVTHVSQLTWARHGESGSMAVFHQTQGPWYAESKRLEFVAARLGAELRNASLRMFGLRVEDEGNYTCQFVTFPQRSRSVDIWLRVLGGGGSGGGGSEPKSSDKTHTCPPCPAPEAEGAPSVFLFPPKPKDTLMISRTPEVTCVVVDVSHEDPEVKFNWYVDGVEVHNAKTKPREEQYNSTYRVVSVLTVLHQDWLNGKEYKCKVSNKALPAPIEKTISKAKGQPREPQVYTLPPSRDELTKNQVSLTCLVKGFYPSDIAVEWESNGQPENNYKTTPPVLDSDGSFFLYSKLTVDKSRWQQGNVFSCSVMHEALHNHYTQKSLSLSPGKGGGGSGGGGSGGGGSLFTVTVPKELYIIEQGSNVTLECNFDTGSHVNLGAITASLQKVENDASPHRERATLLEEQLPLGRALFHIPQVQVRDEGQYRCIIIYGDAWDYKYLTLKVKA
# notes: Homodimer; also called (CD155 IgV)-(G4S)2-Fc-(G4S)3 (PD-L2 IgV)
# B11: PD-L2 SIP with wildtype PD-L2 IgV (SEQ ID NO:115), Avitag and His tag (ligand)
# chain: LFTVTVPKELYIIEHGSNVTLECNFDTGSHVNLGAITASLQKVENDTSPHRERATLLEEQLPLGKASFHIPQVQVRDEGQYQCIIIYGVAWDYKYLTLKVKAGLNDIFEAQKIEWHEHHHHHH
# notes: also called PD-L2 secreted immunomodulatory protein
# B12: PD-L2 SIP with variant PD-L2 IgV H15Q,V31M,S67L,Q82R,V89D (SEQ ID NO:316), Avitag and His tag (ligand)
# chain: B11 chain with H15Q, V31M, S67L, Q82R, V89D
# notes: also called variant PD-L2 SIP
# B13: PD-L2 SIP with variant PD-L2 IgV H15Q,T47A,K65R,S67L,Q82R,V89D (SEQ ID NO:328), Avitag and His tag (ligand)
# chain: B11 chain with H15Q, T47A, K65R, S67L, Q82R, V89D
# notes: also called variant PD-L2 SIP
# B14: PD-L2 SIP with variant PD-L2 IgV H15Q,T47A,S67L,R76G,Q82R,V89D (SEQ ID NO:342), Avitag and His tag (ligand)
# chain: B11 chain with H15Q, T47A, S67L, R76G, Q82R, V89D
# notes: also called variant PD-L2 SIP
# Target: T1, CD226 (Homo sapiens (Human), UniProt Q15762 19-336)
# T1 construct: on transfected cells
# T1 sequence: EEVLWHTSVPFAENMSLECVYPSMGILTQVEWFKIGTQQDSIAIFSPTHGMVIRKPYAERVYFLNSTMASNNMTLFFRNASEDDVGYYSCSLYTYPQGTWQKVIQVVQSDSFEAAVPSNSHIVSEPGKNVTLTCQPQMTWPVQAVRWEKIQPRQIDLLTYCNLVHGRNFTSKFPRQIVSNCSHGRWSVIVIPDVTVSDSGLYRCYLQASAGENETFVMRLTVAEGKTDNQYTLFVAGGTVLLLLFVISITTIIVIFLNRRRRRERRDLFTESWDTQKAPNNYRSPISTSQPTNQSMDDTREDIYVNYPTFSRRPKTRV
# Assay: flow cytometry, transfected cells
row,Binder,MFI parental ratio [ratio]
1,B1,1
2,B2,1.1

# Target: T2, TIGIT (Homo sapiens (Human), UniProt Q495A1 22-244)
# T2 construct: on transfected cells
# T2 sequence: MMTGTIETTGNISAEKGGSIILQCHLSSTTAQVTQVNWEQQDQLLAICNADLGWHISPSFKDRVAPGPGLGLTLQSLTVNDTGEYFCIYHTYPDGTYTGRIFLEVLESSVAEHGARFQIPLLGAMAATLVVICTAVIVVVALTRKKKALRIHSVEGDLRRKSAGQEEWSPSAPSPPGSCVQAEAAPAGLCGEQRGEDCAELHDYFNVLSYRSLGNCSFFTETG
# Assay: flow cytometry, transfected cells
row,Binder,MFI parental ratio [ratio]
1,B1,1
2,B2,1.1

# Target: T3, CD96 (UniProt P40200 22-585, limits assumed)
# T3 construct: whole, on cells; on transfected cells
# T3 sequence (looked up): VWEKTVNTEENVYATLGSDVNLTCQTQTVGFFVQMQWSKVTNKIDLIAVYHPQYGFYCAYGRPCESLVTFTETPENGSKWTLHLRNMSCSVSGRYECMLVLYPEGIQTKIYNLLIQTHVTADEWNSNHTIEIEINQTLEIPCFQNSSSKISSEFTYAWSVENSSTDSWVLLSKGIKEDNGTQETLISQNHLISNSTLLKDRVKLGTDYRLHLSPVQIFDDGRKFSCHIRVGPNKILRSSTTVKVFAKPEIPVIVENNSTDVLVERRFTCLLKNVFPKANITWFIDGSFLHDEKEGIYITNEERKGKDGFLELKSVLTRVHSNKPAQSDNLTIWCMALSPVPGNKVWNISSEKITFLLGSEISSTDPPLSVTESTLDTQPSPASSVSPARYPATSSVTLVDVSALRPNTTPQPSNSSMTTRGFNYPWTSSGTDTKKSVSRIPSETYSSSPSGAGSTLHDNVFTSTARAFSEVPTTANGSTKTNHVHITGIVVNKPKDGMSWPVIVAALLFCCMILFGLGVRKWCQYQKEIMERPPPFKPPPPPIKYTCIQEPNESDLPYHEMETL
# Assay: flow cytometry, transfected cells
row,Binder,MFI parental ratio [ratio]
1,B1,1
2,B2,0.8

# Target: T4, human PD-1 expressed on cells (Jurkat/PD-1 cells) (human, UniProt Q15116 21-288)
# T4 construct: also called PDCD1
# Assay: flow cytometry, Jurkat/PD-1 cells
# T4 sequence (Q15116 21-288): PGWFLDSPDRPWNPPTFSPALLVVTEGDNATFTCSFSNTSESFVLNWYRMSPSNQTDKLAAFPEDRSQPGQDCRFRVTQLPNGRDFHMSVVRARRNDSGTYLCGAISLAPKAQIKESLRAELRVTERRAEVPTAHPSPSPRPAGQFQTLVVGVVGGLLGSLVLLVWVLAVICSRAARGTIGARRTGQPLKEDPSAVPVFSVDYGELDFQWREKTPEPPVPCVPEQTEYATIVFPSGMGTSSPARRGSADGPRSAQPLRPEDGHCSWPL
row,Binder,MFI at 6.25 nM [MFI]
1,B3,9220
2,B4,64
3,B5,108
4,B6,16300
5,B7,91
6,B8,66

# Target: T5, human TIGIT expressed on cells (Jurkat/TIGIT cells) (human, UniProt Q495A1 22-244)
# T5 sequence: T2 sequence
# Assay: flow cytometry, Jurkat/TIGIT cells
row,Binder,MFI at 6.25 nM [MFI]
1,B9,46
2,B3,14500
3,B5,5490
4,B6,9100
5,B10,19900
6,B7,22300
7,B8,9970

# Target: T6, PD-1 stably expressed on Jurkat/IL-2 reporter cells (Jurkat/PD-1) (human, UniProt Q15116 21-288)
# T6 construct: also called Jurkat/PD-1 cells; PD-1+ Jurkat cells
# Assay: culture supernatant on PD-1+ Jurkat cells, surface bound PD-L2 detected with anti-his-APC by flow cytometry
# T6 sequence (Q15116 21-288): as above
row,Binder,binding result
1,B11,binds
2,B12,binds
3,B13,binds
4,B14,binds
